{
  "source": "patent US11351270B2",
  "about": "“Junctophilin-2 fragments and uses therefor” (University of Iowa Research Foundation, priority 2016, dated 2022)",
  "key": {"[1]": {"test_system": "HEK293T cells", "test": "Subcellular localization by confocal imaging", "format": "cell-based", "conditions": "HEK293T cells and cardiomyocytes", "method": "Immunofluorescence was done as described previously (Guo et al., 2015). A Zeiss confocal microscope LSM510 was used for recording cell images.\nTo Investigate the molecular mechanism of JP2NT nuclear importation, an in silico analysis (Sigrist et al., 2002) was performed. […] These domains are evolutionarily conserved among species (FIGS. 18B-C). […] Indicating this NLS is Indispensable for nuclear localization of JP2NT. A fusion protein containing mCherry and the bNLS peptide with the ARR was imported into nuclei (FIG. 16D)."}, "[2]": {"test_system": "TATA box DNA sequences", "test": "Gel shift assay with TATA box sequences", "format": "binding", "conditions": "GST-purified protein; cMyc or CMV promoter sequences", "excerpt": "FIGS. 11A-H. JP2NT is a TATA-box binding protein enriched at transcription start site (TSS) and interacts with basic transcription machinery. […] C) 293T cells were transfected with HA-tagged JP2NT, followed by crosslinking-reversal immunoprecipitation with anti-HA and immunoblotting with anti-polymerase II (Rpb1) or anti-TATA box binding protein (TBP). D-H) JP2NT binds to TATA box DNA sequences in vitro. D-E) Gel shift assays of GST-purified JP2NT binding to WT (D). or mutated TATA box-containing sequences (E) derived from the cMyc promoter. F) Summary of the results of gel shift assays with various of TATA box variants or mutants. Mutation of the core TATA sequences abolished the interaction with GST-JP2NT. G) Deletion of the ARR, but not the N-terminal MORN domains, eliminated JP2NT binding to the TATA box sequence. H) The peptide JP2^331-405 containing the ARR specifically binds to WT TATA box sequence.\n(§1) TBP specifically binds to TATA boxes, eukaryotic core cis-regulatory elements localized at transcription start site. […] This interaction was abrogated by mutation of the TATA box elements (FIGS. 11E&G and 17B). It was concluded that JP2NT is a DNA binding protein, binding to consensus TATA box represented as TATAA(A/T) or TATATA (FIG. 11F)."}, "[3]": {"test_system": "RNA polymerase II (RPB1) and TATA-box binding protein (TBP)", "test": "Crosslinking-reversal co-IP in 293T cells", "conditions": "JP2NT-transfected 293T cells", "method": "Cells were first crosslinked by 1% formaldehyde for 10 minutes at RT before quenching by 0.75 M Tris. After washing with PBS, cells were lysized using RIPA buffer and sonication was applied to breakdown chromatin and shear DNA. Anti-HA resin (sigma) was used to pull down HA tagged protein complexes. The pulled-down protein complexes were boiled at 95° C. for 10 minutes to reverse the formaldehyde induced crosslinking between proteins. Western blot was used to assay the presence of bait and prey proteins.\nas §1"}, "[4]": {"test_system": "RyR2 and Cav1.2", "test": "Coimmunoprecipitation with E-C coupling channels", "format": "binding, mouse", "conditions": "anti-HA immunoprecipitation", "excerpt": "FIGS. 5A-H. JP2 truncations are nonfunctional in regulating Ca^2+ transients. A) An antibody against the HA tag was used to reveal the localization of adenoviral expression of tagged full-length JP2 and truncations, as indicated, in adult wild-type cardiomyocytes. All the three version of JP2 can be localized in the striated pattern. B) Full-length JP2 and JP2(1-565) forms complexes with RyR2 and Cav1.2 In vivo. An antibody against HA was used for immunoprecipitation […]. The RyR2 and Cav1.2 that were pulled down were detected by Western blot analysis. […] IB, immunoblot. C) Adenovirus-mediated expression of full-length JP2, FLAG-JP2(1-565)-HA, and JP2(566-end)-HA in JP2-KD) cardiomyocytes. D) Representative steady-state Ca^2+ transients under 1-Hz field stimulation. The fluorescence intensity (F) of Ca^2+ imaging was normalized to the baseline (FO). The red lines overlapping on Ca^2+ imaging show the profile of the moment of Ca^2+ transient firing on the scanning line in a point-by-point way. A straighter line means better synchronization of the Ca^2+ transients. Note that expression of full-length JP2, but not JP2 truncations, improves the amplitude and synchronization of Ca^2+ transients. E-G) Summary of Ca^2+ transient amplitude, index of desynchronization (mean absolute deviation of firing time), and duration of 50% decay (T5) (n=68, 70, 70, and 52 for Ad-Empty, Ad-JP2, […], and Ad-JP2(566-end), respectively). Only full-length JP2 Improves the amplitude, synchronization, and decay of Ca^2+ transients. H) Summary of SR Ca^2+ content, which was assessed by caffeine-induced SR Ca^2+ release (n=17, 17, 17, and 12 for Ad-Empty, Ad-JP2, Ad-JP2(1-565), and Ad-JP2(566-end), respectively). **, p<0.01 versus indicated groups; N.S., not significant.\nCleavage at the primary calpain proteolysis site (Arg-565/Thr-566) splits apart the C-terminal SR-binding TM domain and N-terminal plasma membrane-binding MORN domains of JP2. […]"}, "[5]": {"test_system": "genomic DNA", "test": "ChIP-seq of JP2NT-OE hearts", "format": "binding, mouse", "conditions": "anti-HA ChIP-seq", "method": "ChIP-seq from transgenic myocardium was performed using the antibody against HA-tag, which pulls down the HA-tagged JP2NT. Sequencing libraries were prepared for the pulled-down DNA and input DNA (randomly fragmented genomic DNA), and then were subjected to Illumina sequencing (NextSeq 500 platform, 75 bp single end reads). The quality of sequencing reads was evaluated by FastQC (version 0.11.3) software (http://www.bioinformatics.babraham.ac.uk/projects/fastqc/) and the sequencing adaptor was trimmed by Cutadapt (version 1.8.1) software (Martin, 2011). Processed sequencing reads were aligned to mouse genome (mm10) by Bowtie 2 (version 2.2.5) software (Langmead et al., 2012) with the “-end-to-end” mode. MACS (version 1.4.2) software […] was used to call enriched peaks (the cutoff of significance was p value<1e-10). Homer (version 4.8.3) software (Heinz et al., 2010) was used to analyze the enriched genomic features of peaks, identify the target genes, and search the binding motifs."}, "[6]": {"test_system": "promoters of Myc, KLF6, TGFβR1 and NFKBIA", "test": "Promoter luciferase reporter assay", "format": "cell-based", "conditions": "co-expression; vs empty vector control", "method": "Firefly and Renilla reporter plasmids and JP2NT variants were co-transfected into HEK293 cells. The protein of the cells was harvested 48 hours after transfection. Promega dual luciferase system was used to evaluate the luciferase activity.\nTo further test whether JP2NT regulates transcription of these genes, luciferase reporters controlled by promoters of Myc, KLF6, TGFβR1 and NFKBIA were constructed."}},
  "data": [
    {"molecule": "JP2NT: shorter form of Junctophilin-2 including the first 565 amino acids of N-terminus of JP2 (protein, UniProt Q9BR39 1-565, looked up, fragment, GST or adenoviral forms, shorter form of Junctophilin-2 including the first 565 amino acids of N-terminus of JP2) MSGGRFDFDDGGAYCGGWEGGKAHGHGLCTGPKGQGEYSGSWNFGFEVAGVYTWPSGNTFEGYWSQGKRHGLGIETKGRWLYKGEWTHGFKGRYGIRQSSSSGAKYEGTWNNGLQDGYGTETYADGGTYQGQFTNGMRHGYGVRQSVPYGMAVVVRSPLRTSLSSLRSEHSNGTVAPDSPASPASDGPALPSPAIPRGGFALSLLANAEAAARAPKGGGLFQRGALLGKLRRAESRTSVGSQRSRVSFLKSDLSSGASDAASTASLGEAAEGADEAAPFEADIDATTTETYMGEWKNDKRSGFGVSERSSGLRYEGEWLDNLRHGYGCTTLPDGHREEGKYRHNVLVKDTKRRMLQLKSNKVRQKVEHSVEGAQRAAAIARQKAEIAASRTSHAKAKAEAAEQAALAANQESNIARTLARELAPDFYQPGPEYQKRRLLQEILENSESLLEPPDRGAGAAGLPQPPRESPQLHERETPRPEGGSPSPAGTPPQPKRPRPGVSKDGLLSPGAWNGEPSGEGSRSVTPSEGAGRRSPARPATERMAIEALQAPPAPSREPEVALYQG", "values": [
      {"measurement": "nuclear localization / nuclear importation", "setting": "[1]", "result": "highly enriched in nuclei"},
      {"measurement": "binding to TATA box", "setting": "[2]", "result": "directly binds"},
      {"measurement": "association with RNA polymerase II (RPB1) and TBP", "setting": "[3]", "result": "associates"},
      {"measurement": "interaction with RyR2 and Cav1.2", "setting": "[4]", "result": "interact"},
      {"measurement": "JP2NT-binding genomic DNA regions (p<10^−10)", "setting": "[5]", "result": "18,242"},
      {"measurement": "genes encompassed by JP2NT-binding regions", "setting": "[5]", "result": "10,587 genes"},
      {"measurement": "promoter activity (firefly luciferase)", "setting": "[6]", "result": "significantly attenuated"}
    ]}
  ]
}
